Measurements as given in the supplement of paper PMC9233669.
Variants at the floor of the assay were thinned out.

Key:
biotinyl-Val-oxazolone = experiment: self-aminoacylation, catalytic enhancement (BVO) (fold over background); higher = more active; k-Seq, kA / k0A0; sequences stand for … in GGGAAUGGAUCCACAUCUACGAAUUC…UUCACUGCAGACUUGACGAAGCUG
Summary of the method: (§1)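 Mutagenized RNA pools with a 21-nt variable region (0.43 μM) were reacted with each biotinyl-aminoacyl-oxazolone at 2–1250 μM for 90 minutes at room temperature, in 50 μL HEPES/NaCl/KCl/MgCl2/CaCl2 buffer containing 5% acetonitrile at pH 6.9–7.0. RNA captured on streptavidin was quantified by triplicate qPCR and by Illumina sequencing. The fraction reacted for each sequence was fit to a pseudo-first-order model with bootstrapping, and catalytic enhancement is the median kA divided by the uncatalyzed rate, taken as the low-activity peak of a bimodal Gaussian fit.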

biotinyl-Ile-oxazolone = experiment: self-aminoacylation, catalytic enhancement (BIO) (fold over background); higher = more active; k-Seq, kA / k0A0; sequences stand for … in GGGAAUGGAUCCACAUCUACGAAUUC…UUCACUGCAGACUUGACGAAGCUG
Summary of the method: as §1

biotinyl-Phe-oxazolone = experiment: self-aminoacylation, catalytic enhancement (BFO) (fold over background); higher = more active; k-Seq, kA / k0A0; sequences stand for … in GGGAAUGGAUCCACAUCUACGAAUUC…UUCACUGCAGACUUGACGAAGCUG
Summary of the method: as §1

biotinyl-Met-oxazolone = experiment: self-aminoacylation, catalytic enhancement (BMO) (fold over background); higher = more active; k-Seq, kA / k0A0; sequences stand for … in GGGAAUGGAUCCACAUCUACGAAUUC…UUCACUGCAGACUUGACGAAGCUG
Summary of the method: as §1

biotinyl-Trp-oxazolone = experiment: self-aminoacylation, catalytic enhancement (BWO) (fold over background); higher = more active; k-Seq, kA / k0A0; sequences stand for … in GGGAAUGGAUCCACAUCUACGAAUUC…UUCACUGCAGACUUGACGAAGCUG
Summary of the method: as §1

biotinyl-Leu-oxazolone = experiment: self-aminoacylation, catalytic enhancement (BLO) (fold over background); higher = more active; k-Seq, kA / k0A0; sequences stand for … in GGGAAUGGAUCCACAUCUACGAAUUC…UUCACUGCAGACUUGACGAAGCUG
Summary of the method: as §1

| Sequence | self-aminoacylation (biotinyl-Val-oxazolone) | self-aminoacylation (biotinyl-Ile-oxazolone) | self-aminoacylation (biotinyl-Phe-oxazolone) | self-aminoacylation (biotinyl-Met-oxazolone) | self-aminoacylation (biotinyl-Trp-oxazolone) | self-aminoacylation (biotinyl-Leu-oxazolone) |
| --- | --- | --- | --- | --- | --- | --- |
| AUUCAUCUAGGUCAUCGGGUA [Fam2.2 aminoacylation ribozyme variant] | 3.46 | 3.09 | 4.63 | 4.18 | 5.53 | 5.18 |
| AUUCAUCUAGGUCAUCGGGUU [Fam2.2 aminoacylation ribozyme variant] | 2.03 | 2.22 | 3.41 | 2.46 | 2.36 | 2.81 |
| AUUCAUCUAGGUCAUCUGGUG [Fam2.2 aminoacylation ribozyme variant] | 2.16 | 2.1 | 18.8 | 3.4 | 2.86 | 4.25 |
| AUUCAUCUAGGUCAUGGGGUG [Fam2.2 aminoacylation ribozyme variant] | 3.14 | 3.26 | 37 | 4.98 | 4.54 | 6.73 |
| AUUCAUCUAGGUCCUCGGGUG [Fam2.2 aminoacylation ribozyme variant] | 3.9 | 4 | 49.6 | 5.21 | 5.66 | 8.62 |
| AUUCAUCUAGGUCUUCGGGUG [Fam2.2 aminoacylation ribozyme variant] | 3.66 | 3.75 | 37.4 | 4.49 | 4.84 | 6.24 |
| AUUCAUCUCGGUCAUCGGGUG [Fam2.2 aminoacylation ribozyme variant] | 4.55 | 4.65 | 49.8 | 6.97 | 6.85 | 9.9 |
| AUUCCCCGAGGUCAUCGGGUG [Fam2.2 aminoacylation ribozyme variant] | 14 | 12.5 | 188 | 22.7 | 20.2 | 29.9 |
| AUUCCCCUAGGACAUCGGGUG [Fam2.2 aminoacylation ribozyme variant] | 6.82 | 6.12 | 44.8 | 7.14 | 8.25 | 9.47 |
| AUUCCCCUAGGCCAUCGGGUG [Fam2.2 aminoacylation ribozyme variant] | 9.59 | 8.31 | 119 | 13.6 | 12.5 | 19.3 |
| AUUCCCCUAGGUCAACGGGUG [Fam2.2 aminoacylation ribozyme variant] | 6.99 | 6.94 | 84.2 | 11.5 | 11.5 | 15.4 |
| AUUCCCCUAGGUCAGCGGGUG [Fam2.2 aminoacylation ribozyme variant] | 7.83 | 8.05 | 61.3 | 11.1 | 11 | 14.1 |
| AUUCCCCUAGGUCAUCAGGUG [Fam2.2 aminoacylation ribozyme variant] | 6.96 | 6.44 | 29.4 | 8.46 | 7.46 | 8.19 |
| AUUCCCCUAGGUCAUCGGGAG [Fam2.2 aminoacylation ribozyme variant] | 6.76 | 6.89 | 19.4 | 8.27 | 8.9 | 9.02 |
| AUUCCCCUAGGUCAUCGGGCG [Fam2.2 aminoacylation ribozyme variant] | 11.3 | 9.9 | 81.8 | 15.7 | 9.17 | 13.5 |
| AUUCCCCUAGGUGAUCGGGUG [Fam2.2 aminoacylation ribozyme variant] | 7.89 | 7.9 | 47.7 | 10.9 | 10.8 | 11.8 |
| AUUCCCCUGAUCAUCGAGUGA [Fam2.1 aminoacylation ribozyme variant] | 4.2 | 3.81 | 8.85 | 6.39 | 7.4 | 5.83 |
| AUUCCCCUGGGUCAUCGGGUG [Fam2.2 aminoacylation ribozyme variant] | 9.66 | 8.62 | 107 | 12.2 | 13.3 | 16.9 |
| AUUCCCCUGGUAAUCGAGUGA [Fam2.1 aminoacylation ribozyme variant] | 3.28 | 3.09 | 37.7 | 6.36 | 7.35 | 5.9 |
| AUUCCCCUGGUCAACGAGUGA [Fam2.1 aminoacylation ribozyme variant] | 4.67 | 4.6 | 49.5 | 8.04 | 8.98 | 7.82 |
| AUUCCCCUGGUCAUCGAGGGA [Fam2.1 aminoacylation ribozyme variant] | 1.55 | 1.42 | 1.62 | 1.29 | 1.99 | 1.56 |
| AUUCCCUUGGUCAUCGAGUGA [Fam2.1 aminoacylation ribozyme variant] | 6.58 | 6.22 | 71.8 | 11.8 | 14.7 | 12.3 |
| AUUCGACUAGGUCAUCGGGUG [Fam2.2 aminoacylation ribozyme variant] | 3.95 | 4.46 | 47.3 | 7.05 | 6.57 | 8.63 |
| AUUCGCCUAGGACAUCGGGUG [Fam2.2 aminoacylation ribozyme variant] | 3.02 | 2.29 | 19.1 | 3.03 | 3.67 | 4.25 |
| AUUCGCCUAGGUAAUCGGGUG [Fam2.2 aminoacylation ribozyme variant] | 2.43 | 2.02 | 28 | 3.62 | 2.77 | 3.88 |
| AUUCGCCUAGGUCACCGGGUG [Fam2.2 aminoacylation ribozyme variant] | 4.27 | 4.4 | 49 | 5.69 | 5.18 | 8.04 |

| Sequence | self-aminoacylation (biotinyl-Val-oxazolone) | self-aminoacylation (biotinyl-Ile-oxazolone) | self-aminoacylation (biotinyl-Phe-oxazolone) | self-aminoacylation (biotinyl-Met-oxazolone) | self-aminoacylation (biotinyl-Trp-oxazolone) | self-aminoacylation (biotinyl-Leu-oxazolone) |
| --- | --- | --- | --- | --- | --- | --- |
| AUUCGCCUAGGUCAUCCGGUG [Fam2.2 aminoacylation ribozyme variant] | 6.7 | 6.5 | 78.7 | 7.99 | 10.3 | 10.9 |
| AUUCGCCUAGGUCAUCGGGCG [Fam2.2 aminoacylation ribozyme variant] | 3.59 | 3.22 | 2.39 | 4.99 | 4.35 | 5.67 |
| AUUCGCCUAGGUCAUCGGGUG [Fam2.2 aminoacylation ribozyme variant] | 23.1 | 26.2 | 364 | 45.8 | 37.3 | 63.8 |
| AUUCGCCUAGGUCUUCGGGUG [Fam2.2 aminoacylation ribozyme variant] | 5.82 | 5.33 | 55.9 | 7.49 | 9 | 8.57 |
| AUUCGCCUGGGUCAUCGGGUG [Fam2.2 aminoacylation ribozyme variant] | 7.88 | 6 | 63.1 | 12.9 | 14.1 | 15.8 |
| AUUCGCCUGGUCAUCGAGUGA [Fam2.1 aminoacylation ribozyme variant] | 3.17 | 3.01 | 16.6 | 4.4 | 6.48 | 4.99 |
| AUUCGCUUAGGUCAUCGGGUG [Fam2.2 aminoacylation ribozyme variant] | 4.24 | 4.11 | 52.5 | 7.02 | 6.47 | 8 |
| AUUCGGCUAGGUCAUCGGGUG [Fam2.2 aminoacylation ribozyme variant] | 3.7 | 3.06 | 24.4 | 3.87 | 4.77 | 4.58 |
| AUUCUACUAGGUCAUCGGGUG [Fam2.2 aminoacylation ribozyme variant] | 3.87 | 3.7 | 41.7 | 5.82 | 5.93 | 7.31 |
| AUUCUCCUAGGCCAUCGGGUG [Fam2.2 aminoacylation ribozyme variant] | 3.74 | 3.49 | 33 | 5.37 | 5.32 | 7 |
| AUUCUCCUAGGGCAUCGGGUG [Fam2.2 aminoacylation ribozyme variant] | 3.73 | 2.92 | 28.7 | 4.21 | 3.58 | 4.7 |
| AUUCUCCUAGGUCAACGGGUG [Fam2.2 aminoacylation ribozyme variant] | 3.61 | 3.79 | 46.7 | 6.57 | 5.38 | 8.2 |
| AUUCUCCUAGGUCAUCCGGUG [Fam2.2 aminoacylation ribozyme variant] | 6.42 | 6.71 | 65.5 | 9.16 | 9.8 | 12.2 |
| AUUCUCCUAGGUCAUCGGGCG [Fam2.2 aminoacylation ribozyme variant] | 3.43 | 3.24 | 13.6 | 3.97 | 4.23 | 5.06 |
| AUUCUCCUAGGUCAUCGGGUG [Fam2.2 aminoacylation ribozyme variant] | 8.06 | 8.11 | 82.4 | 13 | 12.3 | 17.7 |
| AUUCUCCUAGGUCAUCGGGUU [Fam2.2 aminoacylation ribozyme variant] | 3.07 | 3.08 | 14.8 | 3.79 | 3.6 | 4.14 |
| AUUCUCCUAGGUCUUCGGGUG [Fam2.2 aminoacylation ribozyme variant] | 4.77 | 4.96 | 44.1 | 7.28 | 7.39 | 8.25 |
| AUUCUCCUAGGUGAUCGGGUG [Fam2.2 aminoacylation ribozyme variant] | 3.62 | 3.17 | 26.4 | 3.62 | 4.65 | 4.94 |
| AUUCUCCUAGGUUAUCGGGUG [Fam2.2 aminoacylation ribozyme variant] | 3.88 | 4.08 | 40.2 | 6.52 | 6.28 | 8.02 |
| AUUCUCCUAUGUCAUCGGGUG [Fam2.2 aminoacylation ribozyme variant] | 5.62 | 5.5 | 65.9 | 9.01 | 8.54 | 11.6 |
| AUUCUCCUCGGUCAUCGGGUG [Fam2.2 aminoacylation ribozyme variant] | 7.28 | 8.05 | 108 | 11.3 | 11.6 | 15.5 |
| AUUCUCCUGGGUCAUCGGGUG [Fam2.2 aminoacylation ribozyme variant] | 7.53 | 6.05 | 73.6 | 9.61 | 9.42 | 10.8 |
| AUUCUCCUUGGUCAUCGGGUG [Fam2.2 aminoacylation ribozyme variant] | 7.53 | 6.85 | 75 | 9.71 | 9.53 | 13.8 |
| AUUCUGCUAGGUCAUCGGGUG [Fam2.2 aminoacylation ribozyme variant] | 6.13 | 5.96 | 72.1 | 9.46 | 9.84 | 12 |
| AUUGAACUAGGUCAUCGGGUG [Fam2.2 aminoacylation ribozyme variant] | 3.28 | 3.36 | 30 | 4.33 | 5.03 | 4.62 |
